Laboratory results published in patent US6699683B1, “Active site of human gamma glutamy hydrolase” (Health Research Incorporated, priority 1996, dated 2004).
Numbering of substitutions follows the chain as printed. Names and notes keep the numbering of the source. Marks after values point to notes of the source that are not given here.

How the values were obtained:
[1] = test system: wildtype, C19A, C124A and C290A hGH proteins; conditions: 0.5 mM iodoacetate for 60 minutes
Experimental: hGH activity in chromatography fractions was measured with 4-NH2-10-CH3PteGlu5 (Schirk Labs, Jona, Switzerland) as previously described (Rhee et al. 1998). The specific activities and reaction kinetics of hGH were determined using varying concentrations of 4-NH2-10-CH3PteGlu2 as substrate (Schirk Labs). Km and Vmax were determined by the method of Hanes (Price and Stevens 1989) with the best fit line calculated using Excel (Microsoft).

[2] = test system: human gamma glutamyl hydrolase (hGH); assay: hGH activity assay with 4-NH2-10-CH3PteGlu2 as substrate (Km, Vmax, specific activity) of E. coli-expressed purified proteins; format: biochemical; conditions: for Specific activity (nmol 4-NH2-10-CH3PteGlu2 hydrolyzed/min/mg protein): 200 μM 4-NH2-10-CH3PteGlu2 for 5 minutes; for Specific activity (nmol 4-NH2-10-CH3PteGlu2 hydrolyzed/min/mg protein) / Km / Vmax (nmol 4-NH2-10-CH3PteGlu2 hydrolyzed/min/μg protein): mean ± SD of 3 experiments; for hGH activity (in words): purified E. coli-expressed proteins; for Km: substrate 4-NH2-10-CH3PteGlu2, variable concentrations; for Vmax (nmol 4-NH2-10-CH3PteGlu2 hydrolyzed/min/μg protein): variable 4-NH2-10-CH3PteGlu2 concentrations
Experimental: Mutant plasmids were used to transform E. colistrain BL21(DE3)pLysS to kanamycin resistance. Cultures (20 ml) were grown for 16 hours at 37° C., 225 rpm in tryptone-phosphate broth (Moore et al. 1993), containing 30 μg/ml kanamycin and 34 μg/ml chloramphenicol. An aliquot (6 ml) of this culture was used to inoculate 500 ml of the same medium. Cultures were incubated at 27° C., 225 rpm until the OD600nm was 0.5-0.6. Isopropyl β-D-thiogalactoside (IPTG) was added to a final concentration of 1 mM and cultures were incubated for a further 3 hours. Cells were harvested by centrifugation and stored at −80° C. Cells from 1 liter of broth were resuspended in 50 ml of 50 mM Tris/HCl pH 7.5 buffer containing 500 mM NaCl and Complete protease inhibitor cocktail (Boehringer Mannheim, Indianapolis, Ind.). The mixture was sonicated and clarified by centrifugation at 20,000 g for 30 minutes at 4° C. A 20-60% ammonium sulfate precipitate was resuspended in 50 mM sodium acetate, pH 5.8, 1 mM octyl-β-D-glucoside (OBG) and 5% glycerol (buffer A). After dialysis at 4° C. against buffer A and clarification by centrifugation at 30,000 g, 4° C. for 120 minutes, the dialysate was applied in two aliquots to a Protein Pak SP colummn (1.0 cm×10 cm, Waters Division of Millipore Corp., Milford, Mass.) equilibrated in buffer A. The protein was eluted (1 ml/min) with a linear gradient in buffer A of 0 to 1M NaCl over 60 minutes. Fractions were assayed for hGH activity or for hGH protein by Western blot. Fractions containing hGH were pooled and frozen at −80° C. Wildtype hGH and the C19A, C110A, and C290A mutants eluted as two peaks whereas the C124A mutant eluted as a single peak coincident with the first peak for the other hGH proteins. […] There was 8-10 times more hGH protein in peak 1 than in peak 2. A statistically significant amount (40-82%) of enzyme activity of proteins purified on the SP column was lost when stored either at 4° C. or at −80° C. Thawed aliquots of peak 1 were incubated for 2 hours at 4° C. with 2 ml of pHMB agarose (0.8 μmole/ml agarose) (Sigma Chemical, St. Louis, Mo.) equilibrated in 50 mM sodium acetate pH 5.8, 20 mM OBG, 500 mM NaCl (buffer B). The matrix was poured into a column (0.75 cm×4.5 cm) and washed with buffer B. hGH protein was eluted with buffer B containing additionally 10 mM dithiothreitol and 50 mM β-mercaptoethanol. EDTA (1 mM final) was added to each fraction to inhibit remaining proteases. Fractions containing hGH were pooled and stored at −80° C.
Km and Vmax activities were measured using variable 4-NH2-10-CH3PteGlu2 substrate concentrations. Specific activities were measured using 200 μM 4-NH2-10-CH3PteGlu2 for 5 minutes.

[3] = test system: human gamma glutamyl hydrolase (hGH); assay: Activity of baculovirus-expressed hGH mutants on methotrexate polyglutamates; format: biochemical; conditions: mutants expressed in the baculovirus system
From the text: This model for the active site of hGH has been tested by preparing the Cys110Ala, His220Ala, Glu222Ala, His171Ala, and His171Asn mutants of hGH. The mutants were expressed in the baculovirus system used for active hGH to facilitate the rapid expression and purification of the proteins. The mutant proteins were characterized for activity on methotrexate polyglutamates. […] The role of His171 in hGH has been examined by preparing the mutant His171Ala and the more conservative mutation His171Asn.

## O=C(O)CI [iodoacetate]
[1]
  Reduction of hGH activity by iodoacetate: 70-94%

B1: Wildtype: mature human gamma glutamyl hydrolase (SEQ ID NO:1) with N-terminal methionine, expressed in E. coli (protein, listed as Homo sapiens)
chain: RPHGDTAKKPIIGILMQKCRNKVMKNYGRYYIAASYVKYLESAGARVVPVRLDLTEKDYEILFKSINGILFPGGSVDLRRSDYAKVAKIFYNLSIQSFDDGDYFPVWGTCLGFEELSLLISGECLLTATDTVDVAMPLNFTGGQLHSRMFQNFPTELLLSLAVEPLTANFHKWSLSVKNFTMNEKLKKFFNVLTTNTDGKIEFISTMEGYKYPVYGVQWHPEKAPYEWKNLDGISHAPNAVNPAFYLAEFFVNEARKKNHHFKSESEEEKALIYQFSPIYTGNISSFQQCYIFD
modifications: N-terminal methionine
[2]
  Specific activity (nmol 4-NH2-10-CH3PteGlu2 hydrolyzed/min/mg protein): 1913 ± 32 nmol 4-NH2-10-CH3PteGlu2 hydrolyzed/min/mg protein
  hGH activity (in words): had activity
  Km: 55.2 ± 8.4 µM
  Vmax (nmol 4-NH2-10-CH3PteGlu2 hydrolyzed/min/μg protein): 2.7 ± 0.9 nmol 4-NH2-10-CH3PteGlu2 hydro

B2: C19A: hGH variant with cysteine 19 replaced by alanine (protein)
chain: B1 chain with C19A
[2]
  Specific activity (nmol 4-NH2-10-CH3PteGlu2 hydrolyzed/min/mg protein): 1000 ± 72^a nmol 4-NH2-10-CH3PteGlu2 hydrolyzed/min/mg protein
  hGH activity (in words): had activity
  Km: 18.1 ± 0.4 µM
  Vmax (nmol 4-NH2-10-CH3PteGlu2 hydrolyzed/min/μg protein): 1.1 ± 0.3 nmol 4-NH2-10-CH3PteGlu2 hydro

B3: Glu222Ala: hGH mutant with Glu 222 changed to Ala, expressed in the baculovirus system (protein)
chain: B1 chain with E222A
[3]
  Activity on methotrexate polyglutamates: greatly reduced activity

B4: C290A: hGH variant with cysteine 290 replaced by alanine (protein)
chain: B1 chain with C290A
[2]
  Specific activity (nmol 4-NH2-10-CH3PteGlu2 hydrolyzed/min/mg protein): 1406 ± 463 nmol 4-NH2-10-CH3PteGlu2 hydrolyzed/min/mg protein
  hGH activity (in words): had activity
  Km: 19.5 ± 8.6 µM
  Vmax (nmol 4-NH2-10-CH3PteGlu2 hydrolyzed/min/μg protein): 1.9 ± 0.4 nmol 4-NH2-10-CH3PteGlu2 hydro

B5: His171Asn: hGH mutant with His 171 changed to Asn, expressed in the baculovirus system (protein)
chain: B1 chain with H171N
[3]
  Activity on methotrexate tetraglutamate: inactive

B6: C124A: hGH variant with cysteine 124 replaced by alanine (protein)
chain: B1 chain with C124A
[2]
  Specific activity (nmol 4-NH2-10-CH3PteGlu2 hydrolyzed/min/mg protein): 725 ± 79^a nmol 4-NH2-10-CH3PteGlu2 hydrolyzed/min/mg protein
  hGH activity (in words): had activity
  Km: 28.5 ± 3.7 µM
  Vmax (nmol 4-NH2-10-CH3PteGlu2 hydrolyzed/min/μg protein): 1.0 ± 0.1 nmol 4-NH2-10-CH3PteGlu2 hydro

B7: H220A: hGH mutant with His 220 changed to Ala, expressed in the baculovirus system (protein)
chain: B1 chain with H220A
[3]
  Activity on methotrexate polyglutamates: inactive
